Experimental data taken from the DeepSol protein solubility set.

experiment: soluble on expression in E. coli; label from the status in PepcDB or PDB records

Row | Sequence | soluble on expression in E. coli
1 | MSLTIDHSVTNTEQLEQQNPAIKTKLKLKKLKDQVIVITGASSGIGLVTARMAAEKGAKVVAAARNEEALKELTDELKEKGHDAIWVKADVGKEEDVNRIAETAISTFGRFDTWVNNAAVSTFGHAMDVTVEDMKRMFDTNFWGPVYGTRAAVKHYTGRGVPGALINVGSLFGDRGTVIQSTYASAKFALHGWTESIRMELEKEQAPVSVTLIHPGRIDTPYNEHAHSYLDKQPAHYRSMIYPPEAVAEAILFAAEHPKRDMYIGSQAKAIAMLGALFPRLTDRLMEKIMYHSQHAERPSNPREGHHHHHH | soluble
2 | MSLEGEKRVELHLHSPMSQMDAVTGIGKLVEQAKKWGHEAIALTDHAVVQSFPDAYSAAKKHGIKMIYGMEANLVDDGVPIAYNAAHRLLEEETYVVFDVETTGLSAVYDTIIELAAVKVKGGEIIDKFEAFANPHRPLSATIIELTGITDDMLQDAPDVVDVIRDFREWIGDDILVAHNASFDMGFLNVAYKKLLEVEKAKNPVIDTLELGRFLYPEFKNHRLNTLCKKFDIELTQHHRAIYDTEATAYLLLKMLKDAAEKGIQYHDELNENMGQSNAYQRSRPYHATLLAVNSTGLKNLFKLVSLSHIHYFYRVPRIPRSQLEKYREGLLIGSACDRGEVFEGMMQKSPEEVEDIASFYDYLEVQPPEVYRHLLELELVRDEKALKEIIANITKLGEKLNKPVVATGNVHYLNDEGHHHHHH | soluble
3 | MGLFDFFKKKSSSEKTPIEDGDKTVVKSEDTDDSAPGWEAIDAEFDRLYPDQPNPLHYGTIVKYMFGGPDPLDGISVYDAGDFWHFVSYGLSELYTKESTDSEYSGYGIELTFKLKKSTNDEEEIKNGCGLLQYVARYIFKTGKVVLPEEYIYMKQTVGIDIQQKSKLTGFLTVSDNLAKPLDTPHGKVEFVTLIGATDAELRSVYESETSKLEVRKLLQELGNQITDYNRQSLVLEHHHHHH | not soluble
4 | GPGSMHRIVKVNVGGRYFQTRLSTLLRFPDTSFARMFEGLASTSALPPTLSPPPQPTESEDVFVDANPDVFEKVLGFLRTNRIQLPLNDECLRAELVHHLNSWDLMPHAFPASAADGAVEGEEAHRIELPDVCVVQLCDHMQHDQGVKRHAMTITYGADGFQLRKLTQMIRRDLNQQLSSTYWQCYQTNERAAFFATTKVANGAADILTTSITQQVVQHTERLGYHLATSYVTL | not soluble
5 | GPGSMSEKEGKVIPETNGMKRPRFDPVKLGLPEEFTLTDYTRLKGCSCKVPQPELLALLQSVSTTPGRRDVGMDCSIVKLQHKDETGKPLYMVSTTDFFFPSVEDPYLQGQIGAANVLSDLYSTGIDRCDTVLMLLAASTDMDKTEREVCTQEMMKGFVDHVRLAGSDVTGGQTVMNPWPLIGGIATSVVAESQMIRPTGLQPGDILVLTKPLGCQIAVNLKQWLRRPSPIFEEQIQGKMDSEEIEELYNAAADGMKRLNRMAAALMHSHGAHGATDVTGFGILGHAKNLGSAQKADVCLVLDSLPMYRGAVKASKLMGDKYRLFEGYAAETSGGLLVAFGTREEAEGYIRELYETDGEPAWVVGRVVRREGSAPYALLQKDYKIIEVGAKVNDKII | soluble
6 | MSLSDDVALPLEFTDAAANKVKSLIADEDNPNLKLRVYITGGGCSGFQYGFTFDDQVNEGDMTIEKQGVGLVVDPMSLQYLVGGSVDYTEGLEGSRFIVTNPNAKSTCGCGSSFSIEGGSHHHHHH | soluble
7 | MGSDKIHHHHHHMDLRQIKTFVVVAEELHFGRAAARLQIAQPAVTAQIQALERQLGVPLLIRSTRRVQLTEAGMIFNSRCIDILRDIDRTCLATQAVAGKDLHQITIGTIYPATFGVLPNFVSRINQRFPEARIHIHNGNTVGIVREIERGNINLGFIRPVENIGSLRWQSIHREKYLLAIARENPLSSKSTVTPDDLRKQKIIAFSRAYNSQTDDNFPEEFKKYDLNQQVVYSCNDTQAMLAMITAGIGVGFVPEWVKSIPGQNFELREVEGLERHIGLGLAWSVDDPTVNRDSIIELCRTLIGSEVDWPR | not soluble
8 | IVPDAQDLGKSYGIRPSFIIAQAALDSDFGEKILANKYHNLFGLLAEPGTPSITLNDSSTGKKQEKQFTHYKSWKYSMYDYLAHIKSGATGKKDSYTIMVSVKNPKTLVQKLQDSGFDNDKKYAKKMTEIIDLYDL | not soluble
9 | KYKLVFLGEQAVGKTSIITRFMYDTFDNNYQSTIGIDFLSKTLYLDEGPVRLQLWDTAGQERFRSLIPSYIRDSAAAIVVYDITNRQSFENTTKWIQDILNERGKDVIIALVGNKTDLGDLRKVTYEEGMQKAQEYNTMFHETSAKAGHNIKVLFKKTASKL | soluble
10 | MRILVTNDDGIQSKGIIVLAELLSEEHEVFVVAPDKERSATGHSITIHVPLWMKKVFISERVVAYSTTGTPADCVKLAYNVVMDKRVDLIVSGVNRGPNMGMDILHSGTVSGAMEGAMMNIPSIAISSANYESPDFEGAARFLIDFLKEFDFSLLDPFTMLNINVPAGEIKGWRFTRQSRRRWNDYFEERVSPFGEKYYWMMGEVIEDDDRDDVDYKAVREGYVSITPIHPFLTNEQCLKKLREVYD | soluble
11 | SEEEHPVSHKKSKKKSKKHKEKDQIKKLDIETMEEKEEDLQREETAKLSNASPNPNEGVKEGCTASMEPSSALELPDYLIKYIAIVSYEQRQNYKDDFNAEYDEYRALHARMETVARRFIKLDAQRKRLSPGSKEYQNVHEEVLQEYQKIKQSSPNYHEEKYRCEYLHNKLAHIKRLIGEFDQQQAESWH | soluble
12 | NLRSIIESPSFKNAESKLTVAMGYRINNEPLLMDIAKTPHALIAGATGSGKSVCINSILMSLLYKNHPEELRLLLIDPKMVELAPYNGLPHLVAPVITDVKAATQSLKWAVEEMERRYKLFAHYHVRNITAFNKKAPYDERMPKIVIVIDELADLMMMAPQEVEQSIARIAQKARACGIHMLVATQRPSV | not soluble
13 | DNNRWIPIKPGTDSALVLGMIQWIIENQRYNKTFLAQPGANAMKRAGTAHWCNATHLVISDEQHPRNGTFLRASDLNLPFEGEALSDSDPYVIVEEQSGQFGVHTQTEEATLFVDKTVSLASGKVRVKSSLQRLKEEAFKYSLAFYSQQCEIPVEQIAELAKRFTSCGTKAVVDTHGGNMHTNGFYNSFTIMMLNALIGNINMKGGAMAKAGGYPTSAAGPRYDFTKFAGKVGPKGVFLSRSKFPYHKTSEYKRRVEAGKSPYPTRAPWYPFAAPLLTEHLSAAIDGYPYRVKAWINHMANPMYGVPGLKTLLEDKLKDPKQLGLIVSVDAFINETTALSDYIVPDTVTYESWGMATPWHDVPVKTITARWPIVEARTEKTADGRSICLENFLIDVAKKMQLGGFGDNAIQDAQGNWHALHSAEDFYLRSAANLAYVKGGVPEVSAEDIAWSGLERLMPAMQSTLTADEMKRVAFIFARGGRFENATEAYQGEQMKHKWTRPVAIWNERVGSARNTMTGDFYTGCPTWHPQKLADGTPMEEQFPSSEWPFSLTNFKSNIHSAVSNLSPRLNSIKGVNPVYIHPIDAERAGIKTGDEFVIETPSASTKALAMIVSGIRPGTLGFEHGFGHTELGQRSHWIGDKQQPVKTRSQDGVNINDIGLIDPTREGKGVLLDWVVGAAARQSLPAKIRKA | not soluble
14 | CLAEGTRIFDPVTGTTHRIEDVVYGRKPIHVVAAAKDGTLHARPVVSWFDQGTRDVIGLRIAGGAIVWATPDHKVLTEYGWRAAGELRKGDRVAVRDVETGELRYSVIREVLPTRRARTFDLEVEELHTLVAEGVVVHN | soluble
15 | MHSSILLLLSFASITTACPGLLNIFGGAGGGGCGGCGGGCGGGCGCAPPPPPCCGGGCGGCGRKKRSLPEKPTFVGIADSGDDVMCNTPALKKIILENIQTTASDSSKAINTVLESRQIQRFVVVCSEKPFVFTFRADAAYCGATKNGHNCHAFAM | not soluble
16 | MVIKFSSNTTNPPTMIYMGVDKVENEDLIKYGWPEDVWFHVDKLSSAHVYLRLHSGMTIDSIPEALLIDCCQLVKQNSIEGCKLNNVAIVYTMWSNLKKTGDMAVGQVGFHSHKQVKHTVVPTKINEIVNRLEKTRRKDDIDYKEERDARDAKERQKLKKLEQERKDREKKEMLAQNEKKRIEGYEDVDWDAGATTRNDVDPGNLSDDFM | not soluble
